“And” between values parts separate entries of the source, which are not always exact repeats. Equal entries are not always repeated.
Key:
Bcl-xL = Bcl-xL (UniProt Q07817); assay: peptide SPOT array, c-Myc-tagged receptor at 1 uM or 100 nM, anti-c-Myc-Cy3
Mcl-1 [1] = molecular target: Mcl-1 (UniProt Q07820); assay: as above
Target sequence in this assay (Q07820 172-327): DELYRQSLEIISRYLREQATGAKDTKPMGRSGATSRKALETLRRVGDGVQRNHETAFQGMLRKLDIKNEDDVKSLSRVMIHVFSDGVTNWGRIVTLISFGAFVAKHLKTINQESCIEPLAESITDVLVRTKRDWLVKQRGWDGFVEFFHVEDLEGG

Bcl-w = Bcl-w (UniProt Q92843); assay: as above
Bcl-2 [2] = molecular target: Bcl-2 (UniProt P10415); assay: as above
Target sequence in this assay (P10415 1-217): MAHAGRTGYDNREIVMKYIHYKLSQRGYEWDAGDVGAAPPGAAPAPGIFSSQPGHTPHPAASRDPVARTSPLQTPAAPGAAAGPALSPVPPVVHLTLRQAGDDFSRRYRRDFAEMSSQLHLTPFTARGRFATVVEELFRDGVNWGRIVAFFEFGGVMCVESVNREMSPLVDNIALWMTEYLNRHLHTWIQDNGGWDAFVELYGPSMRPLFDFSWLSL

Bfl-1 [3] = molecular target: Bfl-1 (UniProt Q16548); assay: as above
Target sequence in this assay (Q16548 1-151): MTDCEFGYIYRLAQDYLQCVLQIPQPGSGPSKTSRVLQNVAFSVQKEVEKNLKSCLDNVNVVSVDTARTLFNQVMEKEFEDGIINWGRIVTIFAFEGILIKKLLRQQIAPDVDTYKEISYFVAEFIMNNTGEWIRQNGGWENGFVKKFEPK

Bfl-1 [4] = molecular target: Bfl-1 (UniProt Q16548); settings: cited from earlier work
Target sequence in this assay (Q16548 whole entry): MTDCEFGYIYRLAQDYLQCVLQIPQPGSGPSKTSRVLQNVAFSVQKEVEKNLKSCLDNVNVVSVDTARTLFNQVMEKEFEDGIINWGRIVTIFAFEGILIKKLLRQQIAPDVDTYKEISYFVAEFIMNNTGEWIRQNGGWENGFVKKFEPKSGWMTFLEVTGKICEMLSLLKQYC

Mcl-1 [5] = molecular target: Mcl-1 (UniProt Q07820); settings: cited from earlier work
Target sequence in this assay (Q07820 whole entry): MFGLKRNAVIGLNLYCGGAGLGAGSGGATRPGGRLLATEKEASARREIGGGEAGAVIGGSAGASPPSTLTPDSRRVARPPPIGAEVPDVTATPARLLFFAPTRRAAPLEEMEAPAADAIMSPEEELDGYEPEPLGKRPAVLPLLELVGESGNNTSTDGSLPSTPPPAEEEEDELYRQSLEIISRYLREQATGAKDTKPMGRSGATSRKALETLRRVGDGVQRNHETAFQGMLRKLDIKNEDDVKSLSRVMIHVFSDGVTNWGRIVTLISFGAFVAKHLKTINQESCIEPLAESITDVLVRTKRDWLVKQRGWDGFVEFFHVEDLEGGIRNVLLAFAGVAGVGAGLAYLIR

[6] = molecular target: PXT1 BH3-like peptide (human); assay: fluorescence polarisation; direct binding: 10 nM FAM-labeled peptide, receptor serially diluted; 25°C; 20 mM NaPO4, 50 mM NaCl, 1 mM EDTA, 0.001% Triton X, pH 7.8; single-site binding model
[7] = molecular target: peptide based on the putative BH3 motif in Aven (human); assay: peptide or protein array; peptide SPOT arrays on nitrocellulose membranes; 1 µM or 100 nM c-Myc-tagged receptor in TBS (50 mM Tris, pH 8.1, 100 mM NaCl, 0.01% Triton X-100), 1 h, room temperature; detected with anti-c-myc-Cy3; signal given as percent of the Bim BH3 signal
Bcl-2 [8] = molecular target: Bcl-2 (UniProt P10415); assay: fluorescence polarisation; binding assay in solution; direct or competition not told for this peptide (MRPL41 was unlabeled in Figure S2)
Target sequence in this assay (P10415 whole entry): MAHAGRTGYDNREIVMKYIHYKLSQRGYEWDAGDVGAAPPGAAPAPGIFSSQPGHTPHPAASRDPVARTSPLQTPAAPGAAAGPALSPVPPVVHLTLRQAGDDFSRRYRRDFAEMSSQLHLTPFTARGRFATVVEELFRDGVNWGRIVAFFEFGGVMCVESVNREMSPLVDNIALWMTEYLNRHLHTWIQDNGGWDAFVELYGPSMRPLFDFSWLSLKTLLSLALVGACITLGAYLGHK

BCL2L15, sequence (chain, as listed by the source): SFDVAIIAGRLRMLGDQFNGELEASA
TSC2, sequence (chain, as listed by the source): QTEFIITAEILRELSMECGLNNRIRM
Bcl-xL (UniProt Q07817), sequence (Q07817 1-209): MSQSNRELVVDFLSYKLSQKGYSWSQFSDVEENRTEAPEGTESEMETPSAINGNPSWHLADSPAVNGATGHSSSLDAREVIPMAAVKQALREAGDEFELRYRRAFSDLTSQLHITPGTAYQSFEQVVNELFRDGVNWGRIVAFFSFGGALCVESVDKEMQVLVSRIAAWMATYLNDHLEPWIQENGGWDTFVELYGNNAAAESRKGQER
ATP2B1, sequence (chain, as listed by the source): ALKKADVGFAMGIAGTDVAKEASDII
PSMB1, sequence (chain, as listed by the source): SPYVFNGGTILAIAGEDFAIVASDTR
Bcl-xL (from UniProt Q07817-1 1-233) (natural protein), sequence (Q07817 whole entry): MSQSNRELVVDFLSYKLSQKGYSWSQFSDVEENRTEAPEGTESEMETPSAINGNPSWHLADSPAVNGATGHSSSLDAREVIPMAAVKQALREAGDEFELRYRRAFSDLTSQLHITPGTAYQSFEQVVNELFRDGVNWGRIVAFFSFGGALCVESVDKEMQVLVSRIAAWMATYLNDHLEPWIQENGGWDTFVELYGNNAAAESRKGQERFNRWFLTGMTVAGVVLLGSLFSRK
Bad BH3 peptide BH3, sequence (Q92934 103-127): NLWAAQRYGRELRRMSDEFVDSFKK
Bcl-w, sequence (Q92843 1-164 Q133R): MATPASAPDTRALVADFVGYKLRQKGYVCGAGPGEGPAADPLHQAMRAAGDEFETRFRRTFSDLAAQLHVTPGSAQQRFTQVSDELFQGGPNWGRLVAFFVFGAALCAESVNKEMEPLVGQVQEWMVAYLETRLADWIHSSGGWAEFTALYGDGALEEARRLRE
GRIN3A, sequence (chain, as listed by the source): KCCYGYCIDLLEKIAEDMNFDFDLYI
Mcl-1 (from UniProt Q07820 1-350) (natural protein), sequence (Q07820 whole entry): as the sequence (Q07820 whole entry) above
GRIN2D, sequence (chain, as listed by the source): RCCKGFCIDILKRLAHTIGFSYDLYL
MYO3A, sequence (chain, as listed by the source): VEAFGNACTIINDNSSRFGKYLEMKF
C7orf16, sequence (chain, as listed by the source): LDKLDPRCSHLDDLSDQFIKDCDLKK
EIF2C3, sequence (chain, as listed by the source): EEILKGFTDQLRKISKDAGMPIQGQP
ARPC5L, sequence (chain, as listed by the source): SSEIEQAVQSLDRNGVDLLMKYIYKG
PACSIN2, sequence (chain, as listed by the source): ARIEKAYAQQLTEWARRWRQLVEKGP
EIF2C1, sequence (chain, as listed by the source): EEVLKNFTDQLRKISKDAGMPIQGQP
Bcl-2 (from UniProt P10415 1-239) (natural protein), sequence (P10415 whole entry): as the sequence (P10415 whole entry) above
EHMT1, sequence (chain, as listed by the source): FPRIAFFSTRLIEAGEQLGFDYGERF

Row | SPOT signal as a fraction of Bim BH3's signal on the same receptor and array (Bcl-xL) | SPOT signal as a fraction of Bim BH3's signal on the same receptor and array (Mcl-1 [1]) | Substance | further results
1 | 0.03 |  | ARPC5L | 
2 | 0.02 | 0.02 | CHAF1B | 
3 | 0.04 |  | EHMT1 | 
4 | 0.02 |  | EIF2C1 | 
5 | 0.56 and 0.38 |  | HRK | SPOT signal as a fraction of Bim BH3's signal on the same receptor and array (Bfl-1 [3]): 0.23 and 0.32
6 |  | 0.07 and 0.16 | KIF5C | 
7 |  | 0.13 | MYO3A | 
8 | 0.02 | 0.02 | PSMB1 | 
9 | 0.1 | 0.03 and 0.04 | SYN1 | SPOT signal as a fraction of Bim BH3's signal on the same receptor and array (Bfl-1 [3]): 0.04
10 |  | 0.03 | TAF6 | 
11 | 0.15 | 0.06 | TSC2 | SPOT signal as a fraction of Bim BH3's signal on the same receptor and array (Bcl-w): 0.03; SPOT signal as a fraction of Bim BH3's signal on the same receptor and array (Bcl-2 [2]): 0.01; SPOT signal as a fraction of Bim BH3's signal on the same receptor and array (Bfl-1 [3]): 0.03

More lines, now with the values behind:

Row | Substance | SPOT signal as a fraction of Bim BH3's signal on the same receptor and array (Bcl-xL) | SPOT signal as a fraction of Bim BH3's signal on the same receptor and array (Mcl-1 [1]) | further results
12 | ARPC5 | 0.03 |  | 
13 | ATP2B1 | 0.02 | 0.01 | 
14 | BCL2L15 |  |  | SPOT signal as a fraction of Bim BH3's signal on the same receptor and array (Bcl-w): 0.58; SPOT signal as a fraction of Bim BH3's signal on the same receptor and array (Bcl-2 [2]): 0.75; SPOT signal as a fraction of Bim BH3's signal on the same receptor and array (Bfl-1 [3]): 0.52
15 | Bad BH3 peptide BH3 (from UniProt Q92934) |  |  | Kd (Bfl-1 [4]): > 2500 nM; Kd (Mcl-1 [5]): > 2500 nM
16 | Bcl-2 (from UniProt P10415 1-239) (natural protein) |  |  | Kd [6]: < 30 nM
17 | Bcl-xL (from UniProt Q07817-1 1-233) (natural protein) |  |  | percent of the Bim BH3 SPOT signal [7]: 11%; Kd [6]: < 30 nM
18 | C7orf16 | 0.02 |  | 
19 | C9orf84 |  | 0.02 | 
20 | CYP2A13 | 0.06 and 0.07 | 0.04 and 0.05 | SPOT signal as a fraction of Bim BH3's signal on the same receptor and array (Bfl-1 [3]): 0.04
21 | EIF2C3 | 0.03 |  | 
22 | GRIN2D |  | 0.06 | 
23 | GRIN3A |  | 0.03 | 
24 | MRPL41 BH3-like peptide |  |  | Kd (Bcl-2 [8]): 190 nM
25 | Mcl-1 (from UniProt Q07820 1-350) (natural protein) |  |  | Kd [6]: < 30 nM
26 | PACSIN2 | 0.24 |  | 
27 | RPL29 | 0.72 and 0.7 |  | 
28 | TRIO | 0.06 | 0.04 | SPOT signal as a fraction of Bim BH3's signal on the same receptor and array (Bfl-1 [3]): 0.04 and 0.05
29 | VPS29 | 0.02 and 0.01 | 0.02 | 
